Assay results reported in publication PMC6051995, “p38-mediated phosphorylation at T367 induces EZH2 cytoplasmic localization to promote breast cancer metastasis” (Nature Communications, 2018).

T1: Recombinant vinculin protein (UniProt P18206-2 1-1066)
T1 construct: vinculin, recombinant; The BLI methods describe EZH2 and p38α but say nothing of the vinculin protein
T1 sequence (looked up): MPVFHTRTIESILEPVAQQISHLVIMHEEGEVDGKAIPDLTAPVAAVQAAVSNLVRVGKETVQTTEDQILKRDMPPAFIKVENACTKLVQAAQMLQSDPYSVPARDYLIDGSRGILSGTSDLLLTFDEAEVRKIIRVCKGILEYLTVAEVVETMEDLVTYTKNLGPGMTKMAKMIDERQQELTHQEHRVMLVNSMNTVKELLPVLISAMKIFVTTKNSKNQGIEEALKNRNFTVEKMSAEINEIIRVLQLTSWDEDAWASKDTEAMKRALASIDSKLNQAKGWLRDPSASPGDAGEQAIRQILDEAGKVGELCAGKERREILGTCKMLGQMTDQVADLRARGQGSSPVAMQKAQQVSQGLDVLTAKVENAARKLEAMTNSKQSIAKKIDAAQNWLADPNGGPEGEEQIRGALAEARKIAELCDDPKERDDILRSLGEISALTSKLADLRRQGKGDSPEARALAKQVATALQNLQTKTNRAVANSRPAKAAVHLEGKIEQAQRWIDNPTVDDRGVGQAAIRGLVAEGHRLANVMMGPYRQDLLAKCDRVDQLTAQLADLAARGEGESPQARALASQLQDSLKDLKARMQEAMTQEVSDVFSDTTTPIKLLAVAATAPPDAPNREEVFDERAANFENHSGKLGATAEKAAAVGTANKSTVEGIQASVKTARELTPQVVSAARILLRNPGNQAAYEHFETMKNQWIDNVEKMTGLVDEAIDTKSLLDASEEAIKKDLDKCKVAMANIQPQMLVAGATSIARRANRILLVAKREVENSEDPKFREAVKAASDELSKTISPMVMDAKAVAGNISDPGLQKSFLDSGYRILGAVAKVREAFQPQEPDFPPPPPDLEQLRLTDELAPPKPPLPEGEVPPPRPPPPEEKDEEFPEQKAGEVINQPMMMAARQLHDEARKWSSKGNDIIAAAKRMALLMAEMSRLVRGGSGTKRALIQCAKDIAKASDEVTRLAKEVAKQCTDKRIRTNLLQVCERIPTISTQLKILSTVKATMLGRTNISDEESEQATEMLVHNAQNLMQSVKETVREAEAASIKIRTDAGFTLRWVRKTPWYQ


Experiments:
[1] = biological target: T1, Recombinant vinculin protein; experiment: BLI; same experiment as a1 (EZH2 immobilised, 30 °C, HBS-P); steady state analysis of response against concentration; conditions: both partners purified
[2] = biological target: T1, Recombinant vinculin protein; experiment: BLI; biotinylated GST-EZH2 immobilised on Super Streptavidin (SSA) biosensors; analyte in a concentration series; OctetRED96; 30 °C; HBS-P (10 mM HEPES pH 7.4, 150 mM NaCl, 0.005% tween-20); double referencing; kinetic fit, 1:1 binding model; conditions: both partners purified
[3] = biological target: T2, pEZH2(T367) (endogenous EZH2 phosphorylated at T367) (human (endogenous in MDA-MB-231), UniProt Q15910 1-746, phosphothreonine at 367); experiment: co-IP; endogenous proteins from whole cell extracts of MDA-MB-231 cells; magnetic Dynabeads with antibody (EZH2, pEZH2 or vinculin); with or without doxycycline to induce MKK6EE and p38 activation; conditions: partners not purified
T2 construct: EZH2, endogenous, phosphorylated at T367 by p38; also called phosphorylated EZH2 (T367); source: endogenous, MDA-MB-231 (whole cell extracts; fixed cells for PLA)
T2 sequence (Q15910 whole entry): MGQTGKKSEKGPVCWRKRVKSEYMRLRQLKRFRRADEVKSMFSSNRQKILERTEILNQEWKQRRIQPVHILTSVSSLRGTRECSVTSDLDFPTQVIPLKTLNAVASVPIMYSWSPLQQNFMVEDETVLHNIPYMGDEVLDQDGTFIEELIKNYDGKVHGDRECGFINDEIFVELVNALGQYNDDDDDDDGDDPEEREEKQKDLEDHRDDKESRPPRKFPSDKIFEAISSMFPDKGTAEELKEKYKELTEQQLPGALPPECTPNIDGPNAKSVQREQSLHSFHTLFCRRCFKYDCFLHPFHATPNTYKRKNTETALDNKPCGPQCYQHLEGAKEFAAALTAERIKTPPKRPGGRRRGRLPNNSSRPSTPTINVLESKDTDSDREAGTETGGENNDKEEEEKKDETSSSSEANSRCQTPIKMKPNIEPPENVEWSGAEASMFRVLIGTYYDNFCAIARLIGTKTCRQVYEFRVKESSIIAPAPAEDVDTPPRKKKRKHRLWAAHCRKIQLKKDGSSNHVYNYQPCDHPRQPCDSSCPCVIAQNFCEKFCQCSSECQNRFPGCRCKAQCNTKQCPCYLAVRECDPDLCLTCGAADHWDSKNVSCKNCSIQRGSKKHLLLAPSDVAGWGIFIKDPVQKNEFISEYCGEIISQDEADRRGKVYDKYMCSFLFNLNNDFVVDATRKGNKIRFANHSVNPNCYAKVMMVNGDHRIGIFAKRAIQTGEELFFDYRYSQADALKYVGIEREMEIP

Kd [1] | Kd [2] | koff [2] | kon [2] | fold increase of binding on p38 activation against uninduced controls [3] | Binder
42 nM | 15 nM | 0.00385 s⁻¹ | 294000 M⁻¹ s⁻¹ | – | Recombinant EZH2 (GST-EZH2 aa 2-end) (natural protein, biotin (Sulpho-NHS-LC-biotin, protein and biotin mixed 1:1 molar ratio), EZH2 (Enhancer of zeste homolog 2), aa 2-end; GST-EZH2 MW = 114 kDa; The vendor is printed only as 'Bioscience'; also called Enhancer of zeste homolog 2; immobilized EZH2; source: bought: Bioscience (recombinant)) not shown
– | – | – | – | ~10 fold | vinculin (endogenous) (natural protein, human (endogenous in MDA-MB-231), UniProt P18206-2 1-1066, looked up, vinculin, endogenous; source: endogenous, MDA-MB-231 (whole cell lysate; fixed cells for PLA)) MPVFHTRTIESILEPVAQQISHLVIMHEEGEVDGKAIPDLTAPVAAVQAAVSNLVRVGKETVQTTEDQILKRDMPPAFIKVENACTKLVQAAQMLQSDPYSVPARDYLIDGSRGILSGTSDLLLTFDEAEVRKIIRVCKGILEYLTVAEVVETMEDLVTYTKNLGPGMTKMAKMIDERQQELTHQEHRVMLVNSMNTVKELLPVLISAMKIFVTTKNSKNQGIEEALKNRNFTVEKMSAEINEIIRVLQLTSWDEDAWASKDTEAMKRALASIDSKLNQAKGWLRDPSASPGDAGEQAIRQILDEAGKVGELCAGKERREILGTCKMLGQMTDQVADLRARGQGSSPVAMQKAQQVSQGLDVLTAKVENAARKLEAMTNSKQSIAKKIDAAQNWLADPNGGPEGEEQIRGALAEARKIAELCDDPKERDDILRSLGEISALTSKLADLRRQGKGDSPEARALAKQVATALQNLQTKTNRAVANSRPAKAAVHLEGKIEQAQRWIDNPTVDDRGVGQAAIRGLVAEGHRLANVMMGPYRQDLLAKCDRVDQLTAQLADLAARGEGESPQARALASQLQDSLKDLKARMQEAMTQEVSDVFSDTTTPIKLLAVAATAPPDAPNREEVFDERAANFENHSGKLGATAEKAAAVGTANKSTVEGIQASVKTARELTPQVVSAARILLRNPGNQAAYEHFETMKNQWIDNVEKMTGLVDEAIDTKSLLDASEEAIKKDLDKCKVAMANIQPQMLVAGATSIARRANRILLVAKREVENSEDPKFREAVKAASDELSKTISPMVMDAKAVAGNISDPGLQKSFLDSGYRILGAVAKVREAFQPQEPDFPPPPPDLEQLRLTDELAPPKPPLPEGEVPPPRPPPPEEKDEEFPEQKAGEVINQPMMMAARQLHDEARKWSSKGNDIIAAAKRMALLMAEMSRLVRGGSGTKRALIQCAKDIAKASDEVTRLAKEVAKQCTDKRIRTNLLQVCERIPTISTQLKILSTVKATMLGRTNISDEESEQATEMLVHNAQNLMQSVKETVREAEAASIKIRTDAGFTLRWVRKTPWYQ
